Source: patent publication US20250099634A1, “METHOD OF TREATING CANCER” (Novartis AG, priority 2023, published 2025)

What was measured:
[1] = target: P-glycoprotein (efflux transporter) (Homo sapiens, UniProt P08183)
[2] = target: OAT1 (Homo sapiens, UniProt Q4U2R8)
[3] = target: OAT3 (Homo sapiens, UniProt Q8TCC7)
[4] = target: OATP1B1 (Homo sapiens, UniProt Q9Y6L6)
[5] = target: OATP1B3 (Homo sapiens, UniProt Q9NPD5)
[6] = tested on: progressive GEP-NETs; settings: cited from earlier work
[7] = tested on: serum inhibin B; settings: human, in vivo; cited from earlier work
[8] = in vivo; cited from earlier work
[9] = healthy subjects, 20 mg and 60 mg; cited from earlier work

Sequence of OATP1B3 (Q9NPD5 whole entry): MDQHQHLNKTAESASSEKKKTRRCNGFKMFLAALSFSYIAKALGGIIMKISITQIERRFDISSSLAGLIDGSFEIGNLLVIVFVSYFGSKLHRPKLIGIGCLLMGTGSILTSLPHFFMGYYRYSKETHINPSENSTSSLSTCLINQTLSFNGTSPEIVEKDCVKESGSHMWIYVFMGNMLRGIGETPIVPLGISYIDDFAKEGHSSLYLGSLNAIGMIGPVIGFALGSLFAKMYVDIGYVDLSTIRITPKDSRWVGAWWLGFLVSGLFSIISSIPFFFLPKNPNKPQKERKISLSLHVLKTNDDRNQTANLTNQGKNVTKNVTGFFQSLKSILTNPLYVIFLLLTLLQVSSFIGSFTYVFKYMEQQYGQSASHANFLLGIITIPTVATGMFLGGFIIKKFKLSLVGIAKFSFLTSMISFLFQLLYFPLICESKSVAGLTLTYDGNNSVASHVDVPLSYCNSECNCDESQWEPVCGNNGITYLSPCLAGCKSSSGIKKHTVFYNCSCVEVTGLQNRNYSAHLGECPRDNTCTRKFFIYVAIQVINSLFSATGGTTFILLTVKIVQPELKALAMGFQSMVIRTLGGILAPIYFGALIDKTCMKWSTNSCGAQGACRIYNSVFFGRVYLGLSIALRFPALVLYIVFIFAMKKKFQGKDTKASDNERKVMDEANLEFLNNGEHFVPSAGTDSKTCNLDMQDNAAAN
Sequence of OAT1 (Q4U2R8 whole entry): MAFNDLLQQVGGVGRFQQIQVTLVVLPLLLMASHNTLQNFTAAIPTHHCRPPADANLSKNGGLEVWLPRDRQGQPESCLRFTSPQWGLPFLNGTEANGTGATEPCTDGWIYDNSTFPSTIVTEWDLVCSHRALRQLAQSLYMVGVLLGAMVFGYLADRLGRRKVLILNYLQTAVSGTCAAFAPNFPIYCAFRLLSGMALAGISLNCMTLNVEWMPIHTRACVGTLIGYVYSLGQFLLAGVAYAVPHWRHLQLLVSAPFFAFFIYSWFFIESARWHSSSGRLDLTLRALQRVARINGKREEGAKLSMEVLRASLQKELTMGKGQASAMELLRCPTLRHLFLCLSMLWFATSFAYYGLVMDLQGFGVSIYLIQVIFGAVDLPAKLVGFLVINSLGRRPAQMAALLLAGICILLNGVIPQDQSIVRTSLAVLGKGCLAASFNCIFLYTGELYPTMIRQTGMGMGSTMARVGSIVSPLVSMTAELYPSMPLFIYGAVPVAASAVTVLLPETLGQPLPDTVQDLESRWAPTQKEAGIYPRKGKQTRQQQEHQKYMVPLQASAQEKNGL
Sequence of OATP1B1 (Q9Y6L6 whole entry): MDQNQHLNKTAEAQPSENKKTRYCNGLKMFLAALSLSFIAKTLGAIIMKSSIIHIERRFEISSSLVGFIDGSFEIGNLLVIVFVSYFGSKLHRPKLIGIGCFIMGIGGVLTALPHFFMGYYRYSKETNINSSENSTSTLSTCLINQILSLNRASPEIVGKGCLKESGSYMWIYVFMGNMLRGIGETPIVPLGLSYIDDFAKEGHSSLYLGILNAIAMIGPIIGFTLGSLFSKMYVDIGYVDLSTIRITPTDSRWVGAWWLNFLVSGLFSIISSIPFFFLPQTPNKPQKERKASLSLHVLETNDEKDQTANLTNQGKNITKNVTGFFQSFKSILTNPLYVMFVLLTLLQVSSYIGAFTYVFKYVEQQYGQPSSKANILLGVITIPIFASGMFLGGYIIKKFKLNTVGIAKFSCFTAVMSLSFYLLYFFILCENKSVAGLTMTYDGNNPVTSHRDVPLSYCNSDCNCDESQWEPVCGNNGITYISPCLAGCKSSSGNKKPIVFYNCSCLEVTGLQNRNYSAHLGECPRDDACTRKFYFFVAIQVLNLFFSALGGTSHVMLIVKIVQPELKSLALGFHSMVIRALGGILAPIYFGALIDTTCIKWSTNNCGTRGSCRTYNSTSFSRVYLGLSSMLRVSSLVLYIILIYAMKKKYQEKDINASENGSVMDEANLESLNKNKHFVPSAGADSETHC
Sequence of OAT3 (Q8TCC7 whole entry): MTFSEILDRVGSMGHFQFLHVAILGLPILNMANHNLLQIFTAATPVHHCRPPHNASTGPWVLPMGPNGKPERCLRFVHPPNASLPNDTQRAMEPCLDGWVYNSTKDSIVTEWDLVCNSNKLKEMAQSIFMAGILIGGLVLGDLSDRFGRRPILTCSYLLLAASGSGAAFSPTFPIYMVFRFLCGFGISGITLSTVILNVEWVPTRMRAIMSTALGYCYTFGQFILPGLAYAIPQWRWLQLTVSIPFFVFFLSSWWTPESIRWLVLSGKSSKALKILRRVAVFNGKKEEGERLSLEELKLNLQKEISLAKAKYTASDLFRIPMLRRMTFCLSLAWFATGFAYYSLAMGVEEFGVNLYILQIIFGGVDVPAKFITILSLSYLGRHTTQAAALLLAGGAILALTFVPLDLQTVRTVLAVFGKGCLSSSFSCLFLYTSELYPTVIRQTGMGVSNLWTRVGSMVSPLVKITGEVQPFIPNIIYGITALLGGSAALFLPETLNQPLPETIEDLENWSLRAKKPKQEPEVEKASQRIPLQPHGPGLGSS
Sequence of P-glycoprotein (efflux transporter) (P08183 whole entry): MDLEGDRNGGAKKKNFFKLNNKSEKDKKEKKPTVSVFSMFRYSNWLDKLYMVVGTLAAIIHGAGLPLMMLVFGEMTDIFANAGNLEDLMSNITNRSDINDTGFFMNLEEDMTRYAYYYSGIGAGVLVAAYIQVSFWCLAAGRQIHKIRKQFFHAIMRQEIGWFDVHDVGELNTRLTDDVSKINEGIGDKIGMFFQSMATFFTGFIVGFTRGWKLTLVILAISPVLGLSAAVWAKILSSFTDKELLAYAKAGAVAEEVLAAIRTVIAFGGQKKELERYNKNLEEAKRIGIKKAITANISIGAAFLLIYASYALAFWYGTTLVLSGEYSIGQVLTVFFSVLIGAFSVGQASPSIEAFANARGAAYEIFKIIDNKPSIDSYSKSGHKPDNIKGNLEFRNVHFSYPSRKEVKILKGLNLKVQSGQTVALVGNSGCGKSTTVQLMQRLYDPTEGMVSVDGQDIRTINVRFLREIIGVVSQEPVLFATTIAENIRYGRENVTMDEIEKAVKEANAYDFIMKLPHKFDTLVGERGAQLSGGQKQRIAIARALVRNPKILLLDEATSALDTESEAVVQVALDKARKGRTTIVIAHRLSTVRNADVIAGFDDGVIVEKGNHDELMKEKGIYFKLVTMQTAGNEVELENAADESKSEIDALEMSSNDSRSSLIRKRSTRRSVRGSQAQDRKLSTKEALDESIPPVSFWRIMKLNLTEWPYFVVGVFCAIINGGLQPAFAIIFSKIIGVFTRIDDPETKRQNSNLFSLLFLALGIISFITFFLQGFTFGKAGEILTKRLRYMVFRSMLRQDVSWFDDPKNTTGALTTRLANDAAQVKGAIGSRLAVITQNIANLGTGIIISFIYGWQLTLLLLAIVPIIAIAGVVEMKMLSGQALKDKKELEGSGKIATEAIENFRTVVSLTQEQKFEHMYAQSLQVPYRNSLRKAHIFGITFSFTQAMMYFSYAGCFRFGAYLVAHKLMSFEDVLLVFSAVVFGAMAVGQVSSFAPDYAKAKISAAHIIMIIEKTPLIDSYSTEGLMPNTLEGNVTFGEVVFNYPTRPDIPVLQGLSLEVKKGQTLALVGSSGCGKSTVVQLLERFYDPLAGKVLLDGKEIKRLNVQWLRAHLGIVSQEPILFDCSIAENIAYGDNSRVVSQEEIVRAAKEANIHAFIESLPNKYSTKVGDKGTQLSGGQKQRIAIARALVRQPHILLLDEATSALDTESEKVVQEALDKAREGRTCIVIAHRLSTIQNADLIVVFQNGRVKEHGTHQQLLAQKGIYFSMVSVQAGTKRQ

| Compound | interaction with P-glycoprotein [1] | interaction with OAT1 [2] | interaction with OAT3 [3] | interaction with OATP1B1 [4] | interaction with OATP1B3 [5] | AML and MDS ([6]; in vivo) [%] | Hematologic grade 3/4 AEs ([6]; in vivo) [%] | median OS from the start of re-treatment ([6]; re-treatment, available in 194 patients) [months] | DCR ([6]; re-treatment, available in 347 patients) [%] | median PFS ([6]; re-treatment, available in 414 patients) [months] | mean serum inhibin B levels [7] | delayed bone marrow toxicity [8] [%] | plasma exposure vs dose [9] |
| --- | --- | --- | --- | --- | --- | --- | --- | --- | --- | --- | --- | --- | --- |
| C[C@@H](O)[C@H](NC(=O)[C@@H]1CSSC[C@H](NC(=O)[C@@H](Cc2ccccc2)NC(=O)CN2CCN(CC(=O)[O-])CCN(CC(=O)[O-])CCN(CC(=O)[O-])CC2)C(=O)N[C@@H](Cc2ccc(O)cc2)C(=O)N[C@H](Cc2c[nH]c3ccccc23)C(=O)N[C@@H](CCCCN)C(=O)N[C@@H]([C@@H](C)O)C(=O)N1)C(=O)O.[177Lu+3] [Lutathera, ^177Lu-DOTA^0-Tyr^3-Octreotate] | absence of specific interaction | absence of specific interaction | absence of specific interaction | absence of specific interaction | absence of specific interaction | < 1 | 9 | 26.78 | 71 | 12.52 | significant decrease | 1.5 to 2 | – |
| C[C@@H](O)[C@@H]1NC(=O)[C@H](CCCCN)NC(=O)[C@@H](Cc2c[nH]c3ccccc23)NC(=O)[C@H](Cc2ccccc2)NC(=O)[C@@H](NC(=O)[C@H](N)Cc2ccccc2)CSSC[C@@H](C(=O)N[C@H](CO)[C@@H](C)O)NC1=O [Octreotide LAR, octreotide] | – | – | – | – | – | – | – | – | – | – | – | – | dose-proportional |
